# Measurements from patent US9732120B2, “Self-assembled peptide nanostructures by exploiting conformational change, biosensor using the same and detection method of biomolecules using the same” (INDUSTRY-ACADEMIC COOPERATION FOUNDATION, YONSEI UNIVERSITY, priority 2014, dated 2017).
# No end group written: not given here. *: point of attachment. Butanoyl(4-pyren-1-yl) = O=C(CCCc1ccc2ccc3cccc4ccc1c2c34)*
# Experiments:
# Type in all cases: physicochemical
# [1] = Circular dichroism (CD) spectroscopy of the amphiphilic peptide depending on ionic strength and pH; conditions: for [θ]222/[θ]208 (degree of α-helix stabilization): 4° C., 1 μM peptide
# Experimental: Circular dichroism (CD) spectroscopic analysis was performed as follows in order to investigate the dependence of the conformation of the amphiphilic peptide prepared in Preparation Example on ionic strength.
# CD spectra were recorded using the Chirascan circular dichroism spectrometer equipped with a Peltier thermostat. The spectra were recorded between 260 nm and 190 nm using a 2-mm path cuvette. 10 scans were averaged. Also, molar ellipticity per amino acid residue was calculated. The peptide concentration was 1 μM unless specified otherwise and the sample solution incubated at least for a day before the measurement.
# In the graph, ∘ indicates the peptide dissolved in water, and • indicates the peptide dissolved in 150 mM KF. In Test Example 1, the measurement of the samples was measured at 4° C.
# [2] = Atomic force microscopy (AFM) of the amphiphilic peptide
# Experimental: The amphiphilic peptide prepared in Preparation Example was subjected to atomic force microscopic (AFM) measurement. Atomic force microscopic scanning was made at 1.2-1.5 V with 0.5 Hz. The result is shown in FIGS. 15a-15b and FIGS. 16a-16b.
# FIGS. 15a and 15b show atomic force microscopic (AFM) images of 2.5 μM of the amphiphilic peptide dissolved in water. FIG. 15a is a height image and FIG. 15b is a phase image.
# FIGS. 16a and 16b show atomic force microscopic (AFM) images of 1 μM of the amphiphilic peptide dissolved in a 150 mM KF solution. FIG. 16a is a height image and FIG. 16b is a phase image.
# [3] = Fluorescence spectroscopy of the amphiphilic peptide in water or 150 mM KF (pyrene excimer); conditions: 0.25-20 μM peptide
# Experimental: The amphiphilic peptide prepared in Preparation Example was subjected to fluorescence spectroscopic measurement after dissolving in water or a 150 mM KF solution. Details are as follows.
# Fluorescence spectra were measured using the LS55 fluorescence spectrometer (PerkinElmer). Pyrene was excited at 341 nm and the emission spectra were recorded in the range of 360-550 nm. The solid (-) curve indicates the amphiphilic peptide dissolved in 150 mM KF and the dotted ( . . . ) curve indicates the amphiphilic peptide dissolved in water.
# Also, emission spectra were measured after dissolving 0.25-20 μM of the amphiphilic peptide prepared in Preparation Example in water (a) or a KF solution (b).
substance,measurement,setting,value
amphiphilic peptide prepared in Preparation Example: hairpin-shaped amphiphilic peptide derived from HIV-1 rev protein (Rev12-64) with a pyrene group bound to the N-terminal via pyrenebutyric acid ({Butanoyl(4-pyren-1-yl)}-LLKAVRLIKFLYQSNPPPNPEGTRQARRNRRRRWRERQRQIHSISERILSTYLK),[θ]222/[θ]208 (degree of α-helix stabilization),[1]; 150 mM KF (increased ionic strength),0.71
same,solubility depending on pH,"[1]; CD analysis, FIG. 12",solubility decreases gradually as the pH increases
same,[θ]222/[θ]208 (degree of α-helix stabilization),[1]; in water,0.31
same,particle diameter of globular nanostructures,"[2]; 1 μM peptide in 150 mM KF, AFM",20-50 nm
same,state of the peptide by AFM,[2]; 2.5 μM peptide in water,exists mostly in monomer form
same,excimer peak of pyrene (self-assembly),[3]; dissolved in pure water,no excimer peak of pyrene was observed
same,excimer peak of pyrene (self-assembly),[3]; ionic strength 150 mM (KF),the excimer peak of pyrene was observed
